± gives the uncertainty stated by the source.

Drawing on the supplement of paper PMC12338614, this text covers STK11 functional score for 14 variants.

The labels stand for the following.
B1: library; numbered along this chain (parent)
chain: MEVVDPQQLGMFTEGELMSVGMDTFIHRIDSTEVIYQPRRKRAKLIGKYLMGDLLGEGSYGKVKEVLDSETLCRRAVKILKKKKLRRIPNGEANVKKEIQLLRRLRHKNVIQLVDVLYNEEKQKMYMVMEYCVCGMQEMLDSVPEKRFPVCQAHGYFCQLIDGLEYLHSQGIVHKDIKPGNLLLTTGGTLKISDLGVAEALHPFAADDTCRTSQGSPAFQPPEIANGLDTFSGFKVDIWSAGVTLYNITTGLYPFEGDNIYKLFENIGKGSYAIPGDCGPPLSDLLKGMLEYEPAKRFSIRQIRQHSWFRKKHPPAEAPVPIPPSPDTKDRWRSMTVVPYLEDLHGADEDEDLFDIEDDIIYTQDFTVPGQVPEEEASHNGQRRGLPKAVCMNGTEAAQLSTKSRAEGRAPNPARKACSASSKIRRLSACKQQ

In this data set the parent is B1. As to the kind of experiment: STK11 functional score (HeLa growth suppression), rescaled enrichment; synonymous median = 1, nonsense median = 0 (normalised score). The following applies: with HeLa; variant type: missense. Here is the method:
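Deep mutational scan (TileSeq/POPCode codon randomisation) of full-length codon-optimised STK11 cDNA integrated at a Bxb1 landing pad (AAVS1) in HeLa cells. Restoring functional STK11 suppresses HeLa proliferation. Variant frequencies were measured by NGS before and after about two weeks of growth. The error-corrected enrichment log-ratio was rescaled so that synonymous median = 1 and nonsense median = 0, scores above 1 were compressed, and codon-level and three biological replicate scores were combined; error is the bootstrapped standard error. Scale: synonymous median = 1, nonsense median = 0; below 0.5 = damaging.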
MEVVDPQQLGMFTEGELMSVGMDTFIHRIDSTEVIVQPRRKRAKLIGKYLMGDLLGEGSYGKVKEVLDSETLCRRAVKILKKKKLRRIPNGEANVKKEIQLLRRLRHKNVIQLVDVLYNEEKQKMYMVMEYCVCGMQEMLDSVPEKRFPVCQAHGYFCQLIDGLEYLHSQGIVHKDIKPGNLLLTTGGTLKISDLGVAEALHPFAADDTCRTSQGSPAFQPPEIANGLDTFSGFKVDIWSAGVTLYNITTGLYPFEGDNIYKLFENIGKGSYAIPGDCGPPLSDLLKGMLEYEPAKRFSIRQIRQHSWFRKKHPPAEAPVPIPPSPDTKDRWRSMTVVPYLEDLHGADEDEDLFDIEDDIIYTQDFTVPGQVPEEEASHNGQRRGLPKAVCMNGTEAAQLSTKSRAEGRAPNPARKACSASSKIRRLSACKQQ [Y36V]: the STK11 functional score was found to be 0.824 ± 0.12. With MEVVDPQQLGMFTEGELMSVGMDTFIHRIDSTEVIMQPRRKRAKLIGKYLMGDLLGEGSYGKVKEVLDSETLCRRAVKILKKKKLRRIPNGEANVKKEIQLLRRLRHKNVIQLVDVLYNEEKQKMYMVMEYCVCGMQEMLDSVPEKRFPVCQAHGYFCQLIDGLEYLHSQGIVHKDIKPGNLLLTTGGTLKISDLGVAEALHPFAADDTCRTSQGSPAFQPPEIANGLDTFSGFKVDIWSAGVTLYNITTGLYPFEGDNIYKLFENIGKGSYAIPGDCGPPLSDLLKGMLEYEPAKRFSIRQIRQHSWFRKKHPPAEAPVPIPPSPDTKDRWRSMTVVPYLEDLHGADEDEDLFDIEDDIIYTQDFTVPGQVPEEEASHNGQRRGLPKAVCMNGTEAAQLSTKSRAEGRAPNPARKACSASSKIRRLSACKQQ [Y36M], the STK11 functional score amounted to 0.892 ± 0.31. With MEVVDPQQLGMFTEGELMSVGMDTFIHRIDSTEVITQPRRKRAKLIGKYLMGDLLGEGSYGKVKEVLDSETLCRRAVKILKKKKLRRIPNGEANVKKEIQLLRRLRHKNVIQLVDVLYNEEKQKMYMVMEYCVCGMQEMLDSVPEKRFPVCQAHGYFCQLIDGLEYLHSQGIVHKDIKPGNLLLTTGGTLKISDLGVAEALHPFAADDTCRTSQGSPAFQPPEIANGLDTFSGFKVDIWSAGVTLYNITTGLYPFEGDNIYKLFENIGKGSYAIPGDCGPPLSDLLKGMLEYEPAKRFSIRQIRQHSWFRKKHPPAEAPVPIPPSPDTKDRWRSMTVVPYLEDLHGADEDEDLFDIEDDIIYTQDFTVPGQVPEEEASHNGQRRGLPKAVCMNGTEAAQLSTKSRAEGRAPNPARKACSASSKIRRLSACKQQ [Y36T] the figure was 1.04 ± 0.72; with MEVVDPQQLGMFTEGELMSVGMDTFIHRIDSTEVIWQPRRKRAKLIGKYLMGDLLGEGSYGKVKEVLDSETLCRRAVKILKKKKLRRIPNGEANVKKEIQLLRRLRHKNVIQLVDVLYNEEKQKMYMVMEYCVCGMQEMLDSVPEKRFPVCQAHGYFCQLIDGLEYLHSQGIVHKDIKPGNLLLTTGGTLKISDLGVAEALHPFAADDTCRTSQGSPAFQPPEIANGLDTFSGFKVDIWSAGVTLYNITTGLYPFEGDNIYKLFENIGKGSYAIPGDCGPPLSDLLKGMLEYEPAKRFSIRQIRQHSWFRKKHPPAEAPVPIPPSPDTKDRWRSMTVVPYLEDLHGADEDEDLFDIEDDIIYTQDFTVPGQVPEEEASHNGQRRGLPKAVCMNGTEAAQLSTKSRAEGRAPNPARKACSASSKIRRLSACKQQ [Y36W], -0.265 ± 0.082. To MEVVDPQQLGMFTEGELMSVGMDTFIHRIDSTEVISQPRRKRAKLIGKYLMGDLLGEGSYGKVKEVLDSETLCRRAVKILKKKKLRRIPNGEANVKKEIQLLRRLRHKNVIQLVDVLYNEEKQKMYMVMEYCVCGMQEMLDSVPEKRFPVCQAHGYFCQLIDGLEYLHSQGIVHKDIKPGNLLLTTGGTLKISDLGVAEALHPFAADDTCRTSQGSPAFQPPEIANGLDTFSGFKVDIWSAGVTLYNITTGLYPFEGDNIYKLFENIGKGSYAIPGDCGPPLSDLLKGMLEYEPAKRFSIRQIRQHSWFRKKHPPAEAPVPIPPSPDTKDRWRSMTVVPYLEDLHGADEDEDLFDIEDDIIYTQDFTVPGQVPEEEASHNGQRRGLPKAVCMNGTEAAQLSTKSRAEGRAPNPARKACSASSKIRRLSACKQQ [Y36S] belongs 0.558 ± 0.26.

As for MEVVDPQQLGMFTEGELMSVGMDTFIHRIDSTEVINQPRRKRAKLIGKYLMGDLLGEGSYGKVKEVLDSETLCRRAVKILKKKKLRRIPNGEANVKKEIQLLRRLRHKNVIQLVDVLYNEEKQKMYMVMEYCVCGMQEMLDSVPEKRFPVCQAHGYFCQLIDGLEYLHSQGIVHKDIKPGNLLLTTGGTLKISDLGVAEALHPFAADDTCRTSQGSPAFQPPEIANGLDTFSGFKVDIWSAGVTLYNITTGLYPFEGDNIYKLFENIGKGSYAIPGDCGPPLSDLLKGMLEYEPAKRFSIRQIRQHSWFRKKHPPAEAPVPIPPSPDTKDRWRSMTVVPYLEDLHGADEDEDLFDIEDDIIYTQDFTVPGQVPEEEASHNGQRRGLPKAVCMNGTEAAQLSTKSRAEGRAPNPARKACSASSKIRRLSACKQQ [Y36N], the STK11 functional score came out at 1.6 ± 0.22. To MEVVDPQQLGMFTEGELMSVGMDTFIHRIDSTEVILQPRRKRAKLIGKYLMGDLLGEGSYGKVKEVLDSETLCRRAVKILKKKKLRRIPNGEANVKKEIQLLRRLRHKNVIQLVDVLYNEEKQKMYMVMEYCVCGMQEMLDSVPEKRFPVCQAHGYFCQLIDGLEYLHSQGIVHKDIKPGNLLLTTGGTLKISDLGVAEALHPFAADDTCRTSQGSPAFQPPEIANGLDTFSGFKVDIWSAGVTLYNITTGLYPFEGDNIYKLFENIGKGSYAIPGDCGPPLSDLLKGMLEYEPAKRFSIRQIRQHSWFRKKHPPAEAPVPIPPSPDTKDRWRSMTVVPYLEDLHGADEDEDLFDIEDDIIYTQDFTVPGQVPEEEASHNGQRRGLPKAVCMNGTEAAQLSTKSRAEGRAPNPARKACSASSKIRRLSACKQQ [Y36L] belongs 1.03 ± 0.23; to MEVVDPQQLGMFTEGELMSVGMDTFIHRIDSTEVIRQPRRKRAKLIGKYLMGDLLGEGSYGKVKEVLDSETLCRRAVKILKKKKLRRIPNGEANVKKEIQLLRRLRHKNVIQLVDVLYNEEKQKMYMVMEYCVCGMQEMLDSVPEKRFPVCQAHGYFCQLIDGLEYLHSQGIVHKDIKPGNLLLTTGGTLKISDLGVAEALHPFAADDTCRTSQGSPAFQPPEIANGLDTFSGFKVDIWSAGVTLYNITTGLYPFEGDNIYKLFENIGKGSYAIPGDCGPPLSDLLKGMLEYEPAKRFSIRQIRQHSWFRKKHPPAEAPVPIPPSPDTKDRWRSMTVVPYLEDLHGADEDEDLFDIEDDIIYTQDFTVPGQVPEEEASHNGQRRGLPKAVCMNGTEAAQLSTKSRAEGRAPNPARKACSASSKIRRLSACKQQ [Y36R], 1.3 ± 0.59; to MEVVDPQQLGMFTEGELMSVGMDTFIHRIDSTEVIYAPRRKRAKLIGKYLMGDLLGEGSYGKVKEVLDSETLCRRAVKILKKKKLRRIPNGEANVKKEIQLLRRLRHKNVIQLVDVLYNEEKQKMYMVMEYCVCGMQEMLDSVPEKRFPVCQAHGYFCQLIDGLEYLHSQGIVHKDIKPGNLLLTTGGTLKISDLGVAEALHPFAADDTCRTSQGSPAFQPPEIANGLDTFSGFKVDIWSAGVTLYNITTGLYPFEGDNIYKLFENIGKGSYAIPGDCGPPLSDLLKGMLEYEPAKRFSIRQIRQHSWFRKKHPPAEAPVPIPPSPDTKDRWRSMTVVPYLEDLHGADEDEDLFDIEDDIIYTQDFTVPGQVPEEEASHNGQRRGLPKAVCMNGTEAAQLSTKSRAEGRAPNPARKACSASSKIRRLSACKQQ [Q37A], 1.34 ± 0.51. Take MEVVDPQQLGMFTEGELMSVGMDTFIHRIDSTEVIYCPRRKRAKLIGKYLMGDLLGEGSYGKVKEVLDSETLCRRAVKILKKKKLRRIPNGEANVKKEIQLLRRLRHKNVIQLVDVLYNEEKQKMYMVMEYCVCGMQEMLDSVPEKRFPVCQAHGYFCQLIDGLEYLHSQGIVHKDIKPGNLLLTTGGTLKISDLGVAEALHPFAADDTCRTSQGSPAFQPPEIANGLDTFSGFKVDIWSAGVTLYNITTGLYPFEGDNIYKLFENIGKGSYAIPGDCGPPLSDLLKGMLEYEPAKRFSIRQIRQHSWFRKKHPPAEAPVPIPPSPDTKDRWRSMTVVPYLEDLHGADEDEDLFDIEDDIIYTQDFTVPGQVPEEEASHNGQRRGLPKAVCMNGTEAAQLSTKSRAEGRAPNPARKACSASSKIRRLSACKQQ [Q37C]: the STK11 functional score is 0.0953 ± 0.088. As for MEVVDPQQLGMFTEGELMSVGMDTFIHRIDSTEVIYGPRRKRAKLIGKYLMGDLLGEGSYGKVKEVLDSETLCRRAVKILKKKKLRRIPNGEANVKKEIQLLRRLRHKNVIQLVDVLYNEEKQKMYMVMEYCVCGMQEMLDSVPEKRFPVCQAHGYFCQLIDGLEYLHSQGIVHKDIKPGNLLLTTGGTLKISDLGVAEALHPFAADDTCRTSQGSPAFQPPEIANGLDTFSGFKVDIWSAGVTLYNITTGLYPFEGDNIYKLFENIGKGSYAIPGDCGPPLSDLLKGMLEYEPAKRFSIRQIRQHSWFRKKHPPAEAPVPIPPSPDTKDRWRSMTVVPYLEDLHGADEDEDLFDIEDDIIYTQDFTVPGQVPEEEASHNGQRRGLPKAVCMNGTEAAQLSTKSRAEGRAPNPARKACSASSKIRRLSACKQQ [Q37G], the STK11 functional score amounted to 1.08 ± 0.14. As for MEVVDPQQLGMFTEGELMSVGMDTFIHRIDSTEVIYFPRRKRAKLIGKYLMGDLLGEGSYGKVKEVLDSETLCRRAVKILKKKKLRRIPNGEANVKKEIQLLRRLRHKNVIQLVDVLYNEEKQKMYMVMEYCVCGMQEMLDSVPEKRFPVCQAHGYFCQLIDGLEYLHSQGIVHKDIKPGNLLLTTGGTLKISDLGVAEALHPFAADDTCRTSQGSPAFQPPEIANGLDTFSGFKVDIWSAGVTLYNITTGLYPFEGDNIYKLFENIGKGSYAIPGDCGPPLSDLLKGMLEYEPAKRFSIRQIRQHSWFRKKHPPAEAPVPIPPSPDTKDRWRSMTVVPYLEDLHGADEDEDLFDIEDDIIYTQDFTVPGQVPEEEASHNGQRRGLPKAVCMNGTEAAQLSTKSRAEGRAPNPARKACSASSKIRRLSACKQQ [Q37F], the STK11 functional score came out at 0.309 ± 0.29. To MEVVDPQQLGMFTEGELMSVGMDTFIHRIDSTEVIYHPRRKRAKLIGKYLMGDLLGEGSYGKVKEVLDSETLCRRAVKILKKKKLRRIPNGEANVKKEIQLLRRLRHKNVIQLVDVLYNEEKQKMYMVMEYCVCGMQEMLDSVPEKRFPVCQAHGYFCQLIDGLEYLHSQGIVHKDIKPGNLLLTTGGTLKISDLGVAEALHPFAADDTCRTSQGSPAFQPPEIANGLDTFSGFKVDIWSAGVTLYNITTGLYPFEGDNIYKLFENIGKGSYAIPGDCGPPLSDLLKGMLEYEPAKRFSIRQIRQHSWFRKKHPPAEAPVPIPPSPDTKDRWRSMTVVPYLEDLHGADEDEDLFDIEDDIIYTQDFTVPGQVPEEEASHNGQRRGLPKAVCMNGTEAAQLSTKSRAEGRAPNPARKACSASSKIRRLSACKQQ [Q37H] belongs 0.921 ± 0.36. As for MEVVDPQQLGMFTEGELMSVGMDTFIHRIDSTEVIYDPRRKRAKLIGKYLMGDLLGEGSYGKVKEVLDSETLCRRAVKILKKKKLRRIPNGEANVKKEIQLLRRLRHKNVIQLVDVLYNEEKQKMYMVMEYCVCGMQEMLDSVPEKRFPVCQAHGYFCQLIDGLEYLHSQGIVHKDIKPGNLLLTTGGTLKISDLGVAEALHPFAADDTCRTSQGSPAFQPPEIANGLDTFSGFKVDIWSAGVTLYNITTGLYPFEGDNIYKLFENIGKGSYAIPGDCGPPLSDLLKGMLEYEPAKRFSIRQIRQHSWFRKKHPPAEAPVPIPPSPDTKDRWRSMTVVPYLEDLHGADEDEDLFDIEDDIIYTQDFTVPGQVPEEEASHNGQRRGLPKAVCMNGTEAAQLSTKSRAEGRAPNPARKACSASSKIRRLSACKQQ [Q37D], the STK11 functional score was 1.4 ± 0.29.
